Measurements published in paper doi:10.1101/2023.08.01.551421 (bioRxiv, 2023).

Experiments:
[1] = target: GBP1 Δ207-223 variant, non-farnesylated (human) (UniProt P32455)
[2] = target: GBP1 Δ207-223 variant, non-farnesylated (human) (UniProt P32455); test: cross-linking
[3] = target: GBP1 Δ207-223 variant, farnesylated (human) (UniProt P32455); test: cross-linking

| Substance | catalytic GTPase activity against wild-type (GTP hydrolysis assay) [1] | stoichiometry N [2] | stoichiometry N [3] |
| --- | --- | --- | --- |
| GBP1 Δ207-223 variant, non-farnesylated (from UniProt P32455 1-592) (natural protein) | 1.7 fold | 2 | – |
| GBP1 Δ207-223 variant, farnesylated (from UniProt P32455) (natural protein) | – | – | 2 |
